Experimental data published in patent US20210261648A1 (published 2021).
Numbering of substitutions follows the chain as printed. Numbers in names are those of the source.

Tests used:
[1] = molecular target: T1, FcγRIa extracellular domain with C-terminal His tag (human, UniProt P12314 16-292); assay: SPR, captured antibody, FcgR analyte
T1 construct: also called FcgRIa
Method: (§1) Relative binding activities were calculated for the results of analyzing interactions with the respective FcγRs according to the following method.

[2] = molecular target: T2, FcγRIIb extracellular domain with C-terminal His tag (human, UniProt P31994 43-217); assay: SPR, captured antibody, FcgR analyte
T2 construct: extracellular domain; also called FcgRIIb
T2 sequence (looked up): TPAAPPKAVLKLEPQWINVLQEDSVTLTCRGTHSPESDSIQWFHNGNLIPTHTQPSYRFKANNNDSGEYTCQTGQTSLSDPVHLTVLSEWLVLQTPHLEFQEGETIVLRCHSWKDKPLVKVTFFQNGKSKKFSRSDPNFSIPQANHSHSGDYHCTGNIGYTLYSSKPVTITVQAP
Method: as §1

FcγRIIa type R = molecular target: T3, FcγRIIa type R (human, UniProt P12318 34-217); assay: SPR (Biacore), captured antibody, soluble FcγR
T3 chain: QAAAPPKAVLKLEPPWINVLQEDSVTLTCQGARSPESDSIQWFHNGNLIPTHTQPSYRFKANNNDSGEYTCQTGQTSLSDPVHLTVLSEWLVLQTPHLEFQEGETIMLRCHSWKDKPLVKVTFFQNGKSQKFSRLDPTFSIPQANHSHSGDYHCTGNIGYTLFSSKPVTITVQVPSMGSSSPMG

FcγRIIb = molecular target: T4, FcγRIIb (human, UniProt P31994 43-217); assay: SPR (Biacore), captured antibody, soluble FcγR
T4 construct: extracellular domain; also called FcgRIIb; CD32B
T4 sequence (looked up): T2 sequence (looked up)

FcγRIa = molecular target: T5, FcγRIa (human, UniProt P12314 16-292); assay: SPR (Biacore), captured antibody, soluble FcγR
T5 construct: Whole entry named; also called FcgRIa; CD64A
T5 sequence (P12314 16-292): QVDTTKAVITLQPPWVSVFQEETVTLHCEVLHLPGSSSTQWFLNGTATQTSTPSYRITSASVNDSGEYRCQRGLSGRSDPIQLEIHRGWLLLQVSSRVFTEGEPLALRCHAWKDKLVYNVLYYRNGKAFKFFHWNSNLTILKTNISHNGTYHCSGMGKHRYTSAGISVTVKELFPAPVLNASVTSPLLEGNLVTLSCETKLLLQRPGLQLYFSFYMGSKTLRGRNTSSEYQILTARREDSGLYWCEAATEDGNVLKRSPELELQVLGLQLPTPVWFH

T1 sequence (P12314 16-292): as above

B1: IL6R-2B261/IL6R-L (antibody, human IgG1, kappa)
heavy: QVQLQESGPGLVKPSETLSLTCAVSGHSISHDHAWSWVRQPPGEGLEWIGFISYSGITNYNPSLQGRVTISRDNSKNTLYLQMNSLRAEDTAVYYCARSLARTTAMDYWGEGTLVTVSSASTKGPSVFPLAPSSKSTSGGTAALGCLVKDYFPEPVTVSWNSGALTSGVHTFPAVLQSSGLYSLSSVVTVPSSSLGTQTYICNVNHKPSNTKVDKKVEPKSCDKTHTCPPCPAPDLLGGDSVFLFPPKPKDTLMISRTPEVTCVVVDVSHEDPEVKFNWYVDGVEVHNAKTKPREEQDNSTYRVVSVLTVLHQDWLNGKEYKCKVSNKALPAPIEKTISKAKGQPREPQVYTLPPSRDELTKNQVSLTCLVKGFYPSDIAVEWESNGQPENNYKTTPPVLDSDGSFFLYSKLTVDKSRWQQGNVFSCSVMHEALHNHYTQESLSLSP
light: not shown
[1]
  relative binding activity: 100 relative (IL6R-BF648/IL6R-L = 100)
[2]
  relative binding activity: 115 relative (IL6R-BF648/IL6R-L = 100)

B2: IL6R-BP193/IL6R-L (antibody, human IgG1, kappa)
heavy: B1 heavy with H270D, P273G, D298Y, A332K
light: not shown
[1]
  relative binding activity: 113 relative (IL6R-BF648/IL6R-L = 100)
[2]
  relative binding activity: 173 relative (IL6R-BF648/IL6R-L = 100)

B3: IL6R-BP553/IL6R-L (antibody, human IgG1, kappa)
heavy: B1 heavy with G239D, V266I, S269A, H270E, P273G, E274D, D298Y, A332R
light: not shown
notes: Alterations in EU numbering, introduced into IL6R-B3
FcγRIIa type R
  Kd: 86 nM
FcγRIIb
  Kd: 3.1 nM
FcγRIa
  Kd: 3.4 nM

B4: IL6R-BP490/IL6R-L (antibody, human IgG1, kappa)
heavy: B1 heavy with D235E, G239D, V266I, S269A, H270E, P273G, D298Y, A332R
light: not shown
notes: as for B3
FcγRIIa type R
  Kd: 110 nM
FcγRIIb
  Kd: 2.4 nM
FcγRIa
  Kd: 4.5 nM

B5: IL6R-BP132/IL6R-L (antibody, human IgG1, kappa)
heavy: B1 heavy with D298Y, K328A, A332K
light: not shown
[1]
  relative binding activity: 91 relative (IL6R-BF648/IL6R-L = 100)
[2]
  relative binding activity: 150 relative (IL6R-BF648/IL6R-L = 100)

B6: IL6R-BP176/IL6R-L (antibody, human IgG1, kappa)
heavy: B1 heavy with D298Y, K328D, A332K
light: not shown
[1]
  relative binding activity: 102 relative (IL6R-BF648/IL6R-L = 100)
[2]
  relative binding activity: 147 relative (IL6R-BF648/IL6R-L = 100)

B7: IL6R-BP188/IL6R-L (antibody, human IgG1, kappa)
heavy: B1 heavy with G239D, H270D, P273G, D298Y, A332K
light: not shown
[1]
  relative binding activity: 74 relative (IL6R-BF648/IL6R-L = 100)
[2]
  relative binding activity: 179 relative (IL6R-BF648/IL6R-L = 100)

B8: IL6R-BP182/IL6R-L (antibody, human IgG1, kappa)
heavy: B1 heavy with P273G, A332K
light: not shown
[1]
  relative binding activity: 95 relative (IL6R-BF648/IL6R-L = 100)
[2]
  relative binding activity: 173 relative (IL6R-BF648/IL6R-L = 100)

B9: IL6R-BP537/IL6R-L (antibody, human IgG1, kappa)
heavy: B1 heavy with D235E, G239D, V266I, S269G, H270E, P273G, D298Y, A332R
light: not shown
notes: as for B3
FcγRIIa type R
  Kd: 270 nM
FcγRIIb
  Kd: 6.9 nM
FcγRIa
  Kd: 29 nM

B10: IL6R-BP082/IL6R-L (antibody, human IgG1, kappa)
heavy: B1 heavy with D298Y, A332K
light: not shown
[1]
  relative binding activity: 74 relative (IL6R-BF648/IL6R-L = 100)
[2]
  relative binding activity: 136 relative (IL6R-BF648/IL6R-L = 100)

B11: IL6R-BP253/IL6R-L (antibody, human IgG1, kappa)
heavy: B1 heavy with D235E, D240P, S269E, D298Y, L330F
light: not shown
notes: S267E/L328F (EU numbering) in IL6R-B3; comparative control
FcγRIIa type R
  Kd: 2.1 nM

B12: IL6R-BP435/IL6R-L (antibody, human IgG1, kappa)
heavy: B1 heavy with G239D, H270D, P273G, K328A, A332R, I334T
light: not shown
notes: as for B3
FcγRIa
  Kd: 1 nM

B13: IL6R-BP534/IL6R-L (antibody, human IgG1, kappa)
heavy: B1 heavy with G239D, V266I, H270E, P273G, A332R, P398L
light: not shown
notes: as for B3
FcγRIIa type R
  Kd: 91 nM
FcγRIIb
  Kd: 3 nM
FcγRIa
  Kd: 9.3 nM

B14: IL6R-BP555/IL6R-L (antibody, human IgG1, kappa)
heavy: B1 heavy with D235E, G239D, V266I, S269A, H270E, P273G, E274D, A332R
light: not shown
notes: as for B3
FcγRIIa type R
  Kd: 160 nM
FcγRIIb
  Kd: 4.1 nM
FcγRIa
  Kd: 9.4 nM

B15: IL6R-BP181/IL6R-L (antibody, human IgG1, kappa)
heavy: B1 heavy with P273G, D298Y, K328A, A332K
light: not shown
[1]
  relative binding activity: 108 relative (IL6R-BF648/IL6R-L = 100)

B16: IL6R-BP191/IL6R-L (antibody, human IgG1, kappa)
heavy: B1 heavy with H270D, P273G, D298Y, K328A, A332K
light: not shown
[1]
  relative binding activity: 125 relative (IL6R-BF648/IL6R-L = 100)

B17: IL6R-BP205/IL6R-L (antibody, human IgG1, kappa)
heavy: B1 heavy with P273G, A332R
light: not shown
[1]
  relative binding activity: 97 relative (IL6R-BF648/IL6R-L = 100)
[2]
  relative binding activity: 167 relative (IL6R-BF648/IL6R-L = 100)

B18: IL6R-BP085/IL6R-L (antibody, human IgG1, kappa)
heavy: B1 heavy with D235E, G239D, D298Y, A332K
light: not shown
[1]
  relative binding activity: 19 relative (IL6R-BF648/IL6R-L = 100)
[2]
  relative binding activity: 152 relative (IL6R-BF648/IL6R-L = 100)

B19: IL6R-BP531/IL6R-L (antibody, human IgG1, kappa)
heavy: B1 heavy with G239D, V266I, S269G, H270E, P273G, A332R, P398M
light: not shown
notes: as for B3
FcγRIIa type R
  Kd: 120 nM
FcγRIIb
  Kd: 3.8 nM
FcγRIa
  Kd: 9.4 nM

B20: IL6R-BP204/IL6R-L (antibody, human IgG1, kappa)
heavy: B1 heavy with P273G, D298Y, K328A, A332R
light: not shown
[1]
  relative binding activity: 110 relative (IL6R-BF648/IL6R-L = 100)
[2]
  relative binding activity: 165 relative (IL6R-BF648/IL6R-L = 100)
